Key:
complement factor D (fD) [1] = biological target: T1, complement factor D (fD) (Homo sapiens, UniProt P00746 SEQ:1-228); experiment: FP filter; double-filter nitrocellulose binding; 100 nM DNA, 5 uM fD; conditions: tags: 6xHis; label: end-labeled; potential G4
Description: (§1) Specificity of binding was assessed by measuring binding to casein. In all binding reactions, the oligonucleotide concentration was 100 nM, the fD concentration 5 μM and the casein concentration 20 μM.

complement factor D (fD) [2] = biological target: T1, complement factor D (fD); experiment: FP filter; not above naive library (3.6%); 100 nM DNA, 5 uM fD; conditions: tags: 6xHis, label: end-labeled
Description: as §1

complement factor D (fD) [3] = biological target: T1, complement factor D (fD); experiment: inhibition; alternative-pathway hemolysis of rabbit RBC, C1q-depleted human serum, room temperature; conditions: protein: extract; tags: endogenous fD in C1q-depleted human serum; label: Dy650-N30S.R.OMe 2'-OMe oligo hybridized to 3' constant region (flow assays)
Description: Briefly, citrated rabbit blood was centrifuged at 500×g for 5 minutes at room temperature. The top plasma fraction was removed and the volume was replaced with 1× Veronal buffer containing 0.1% gelatin (prepared from 5× Veronal buffer, Lonza #12-624E and 2% gelatin solution, Sigma-Aldrich, G1393). The red blood cells were washed two more times. The washed rabbit red blood cells were diluted in 1× Veronal buffer to a concentration of 2×10⁹ cells/mL (RBCs).
In V-bottom 96-well plates the following reagents were added to a final volume of […] of 1× Veronal buffer with 0.1% gelatin, 100 μL aptamer, 30 μL of C1q-depleted human serum and 20 μL RBCs. This mixture was incubated for 25 minutes at room temperature, then the reaction was stopped by the addition of 5 μL of 500 mM EDTA. The plate was centrifuged for 5 minutes at 500×g at room temperature, then 100 μL of supernatant was removed and the extent of RBC lysis was determined by measuring absorbance at 405 nm.
C1-C3 identified in Example 1, a non-specific control oligo (C8), and one anti-fD Fab antibody fragment as described in Example 1 (AFD) were incubated with C1q-depleted human serum to allow binding to fD present in the serum, then assayed for the ability to inhibit fD-dependent lysis of rabbit red blood cells (FIG. 11). […] IC₅₀ values for C1-C3, C8 and AFD are depicted in Table 14.

T1 sequence (P00746 26-253): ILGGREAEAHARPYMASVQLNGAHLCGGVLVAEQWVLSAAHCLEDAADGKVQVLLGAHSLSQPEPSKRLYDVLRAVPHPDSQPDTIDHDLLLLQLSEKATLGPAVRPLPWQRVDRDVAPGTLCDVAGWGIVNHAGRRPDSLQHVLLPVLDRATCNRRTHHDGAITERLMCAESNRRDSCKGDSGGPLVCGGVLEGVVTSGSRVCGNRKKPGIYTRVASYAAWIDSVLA

B1: Aptamer 5 (rank 2) (ssDNA)
DNA: GTGACGACTGACATATCTGCGTTTGGGGTTGGGGCCTGGGAGTTTGGGGAGCAGAAAGGACGTAGTTGAGTCTGAGTGCT
For B1, the binding signal (complement factor D (fD) [1]) was 63 % bound.

B2: Aptamer 10 (rank 7) (ssDNA)
DNA: GTGACGACTGACATATCTGCCCTATAGGGGTGTGGGCGAGGGGTGGGTGGTAGGGCGGCTCGTAGTTGAGTCTGAGTGCT
B2 gave a binding signal (complement factor D (fD) [2]; potential G4) of 1.9 % bound.

B3: Aptamer 27 (rank 24) (ssDNA)
DNA: GTGACGACTGACATATCTGCGGGCGTCTGAGCGCATGGATGACCCACCGACAGATTGCGGCGTAGTTGAGTCTGAGTGCT
Work on B3 yielded a binding signal (complement factor D (fD) [2]; non-G4) of 0.7 % bound.

B4: Aptamer 7 (rank 4) (ssDNA)
DNA: GTGACGACTGACATATCTGCGGCGGTTGGGGTCGAAGGGCGAGGGGTGGGAGGTCGCCGTAGTTGAGTCTGAGTGCT
Work on B4 yielded a binding signal (complement factor D (fD) [2]; potential G4) of 3.2 % bound.

B5: Aptamer 12 (rank 9) (ssDNA)
DNA: GTGACGACTGACATATCTGCAAAAGTTAGATTGACATGGTATGCACCGTCTGAGGTTGGTCGTAGTTGAGTCTGAGTGCT
Work on B5 yielded a binding signal (complement factor D (fD) [2]; non-G4) of 1.6 % bound.

B6: Aptamer 8 (rank 5) (ssDNA)
DNA: GTGACGACTGACATATCTGCTATTTTGGGGCCTGGGTGTTGGGGATTGGGGACTATGTGTCGTAGTTGAGTCTGAGTGCT
For B6, the binding signal (complement factor D (fD) [1]) was 60.3 % bound.

B7: Aptamer 15 (rank 12) (ssDNA)
DNA: GTGACGACTGACATATCTGCTGCTTCCAGCGGTCATGATATGCACTGTCTGAAGCTCGGTCGTAGTTGAGTCTGAGTGCT
B7 showed a binding signal (complement factor D (fD) [2]; non-G4) of 0.4 % bound.

B8: C2 (Aptamer 2) (ssRNA)
RNA: GGGAGUGUGUACGAGGCAUUAGUCCGCCGAAGUCUUUUGGCUCGGUUUUUUCAAGGUCGGCGGCUUUGAUACUUGAUCGCCCUAGAAGC
modifications: 2'-F G; 2'-OMe A, C, U
Work on B8 yielded an IC50 (complement factor D (fD) [3]) of 3.3 nM.

B9: C3 (Aptamer 3) (ssRNA)
RNA: GGGAGUGUGUACGAGGCAUUAGGCCGCCACCUCGUUUGAUUGCGGUUGUUCGGCCGCGGGCGGCUUUGAUACUUGAUCGCCCUAGAAGC
modifications: 2'-F G; 2'-OMe A, C, U
For B9, the IC50 (complement factor D (fD) [3]) was 7 nM.

B10: C1 (Aptamer 1) (ssRNA)
RNA: GGGAGUGUGUACGAGGCAUUAGGCCGCCACCCAAACUGCAGUCCUCGUAAGUCUGCCUGGCGGCUUUGAUACUUGAUCGCCCUAGAAGC
modifications: 2'-F G; 2'-OMe A, C, U
B10 showed an IC50 (complement factor D (fD) [3]) of 5.1 nM.

B11: Aptamer 4 (rank 1) (ssDNA)
DNA: GTGACGACTGACATATCTGCTCCGAGGTTATTGGGGTTGGGGCCTGGGCGATTGGGGCCTCGTAGTTGAGTCTGAGTGCT
B11 was tested, and the binding signal (complement factor D (fD) [1]) was 58.3 % bound.

Reference: patent publication US20180051287, “COMPOSITIONS AND METHODS FOR INHIBITING FACTOR D” (Vitrisa Therapeutics, Inc., published 2018)
